Experimental data from publication PMC8633581.

How the values were obtained:
[1] = biological target: Gαq/i (chimera between Gαq and Gαi), as used in fluorescence polarisation; experiment: fluorescence polarisation; direct binding of HTH peptide and Gαq/i; conditions not given
[2] = biological target: 171L-graft, displayed on yeast (phage T4) (UniProt P00720); experiment: flow cytometry on cells; yeast surface titration: yeast displaying the construct, biotinylated Gαq/i 1 nM to 7.5 μM with AlF4-, 1 h on ice, streptavidin-phycoerythrin; 10 mM HEPES pH 8.0, 150 mM NaCl, 10 mM MgCl2, 30 μM AlCl3, 10 mM NaF, 0.1% BSA; one-step isotherm, apparent KD
[3] = biological target: 1EBB-graft, displayed on yeast (Geobacillus stearothermophilus); experiment: as above
[4] = biological target: HTH peptide of PLC-β3 with the mutations I860A and V866W, expressed on the surface of yeast; experiment: as above

Row | Substance | Kd [1] [nM] | Kd [2] [nM] | Kd [3] [nM] | Kd [4] [nM] | fold increase of affinity against the original HTH peptide [1] [fold]
1 | TAMRA-labeled HTH peptide (I860A) derived from PLC-β3 | 400 | – | – | – | –
2 | biotinylated Gαq/i (chimera between Gαq and Gαi, with C-terminal avitag) | – | 1700 | 2000 | 400 | –
3 | soluble HTH peptide of PLC-β3 with the V866W mutation | 290 | – | – | – | > 14
